# Source: IntAct's records for PubMed 19503079
# Assays:
# atxr6_arath ATXR6 = target: T1, atxr6_arath ATXR6 (UniProt Q9FNE9)
# T1 sequence: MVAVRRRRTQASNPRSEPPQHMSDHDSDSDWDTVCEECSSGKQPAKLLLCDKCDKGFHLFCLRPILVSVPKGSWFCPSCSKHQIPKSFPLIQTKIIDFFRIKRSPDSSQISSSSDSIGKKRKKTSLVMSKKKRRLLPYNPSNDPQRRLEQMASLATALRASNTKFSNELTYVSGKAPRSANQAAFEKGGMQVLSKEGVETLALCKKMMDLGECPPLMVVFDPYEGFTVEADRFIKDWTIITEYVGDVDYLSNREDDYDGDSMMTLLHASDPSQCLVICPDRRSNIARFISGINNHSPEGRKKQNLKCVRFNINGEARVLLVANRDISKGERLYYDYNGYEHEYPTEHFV
# atxr5_arath ATXR5 = target: T2, atxr5_arath ATXR5 (UniProt Q8VZJ1)
# T2 sequence: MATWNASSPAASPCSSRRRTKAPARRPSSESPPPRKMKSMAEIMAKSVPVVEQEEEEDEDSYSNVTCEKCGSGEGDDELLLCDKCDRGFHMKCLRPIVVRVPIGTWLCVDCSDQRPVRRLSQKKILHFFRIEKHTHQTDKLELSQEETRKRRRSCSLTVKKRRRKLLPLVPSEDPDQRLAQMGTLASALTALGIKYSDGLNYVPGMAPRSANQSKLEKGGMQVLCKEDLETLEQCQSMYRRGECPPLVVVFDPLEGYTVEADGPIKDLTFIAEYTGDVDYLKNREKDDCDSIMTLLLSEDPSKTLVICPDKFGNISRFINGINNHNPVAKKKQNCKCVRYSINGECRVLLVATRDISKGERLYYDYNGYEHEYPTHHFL
substance,measurement,setting,value
Histone H3.1 (Arabidopsis thaliana (Mouse-ear cress)) (from UniProt P59226) K28A,effect of a mutation on the interaction,atxr6_arath ATXR6,disrupting interaction
same,effect of a mutation on the interaction,atxr5_arath ATXR5,disrupting interaction
